Measurements from patent publication US20230220007A1, “SETD7 EPIGENETIC MODULATORS” (Biorchestra Co., Ltd., priority 2020, published 2023).
Positions count from the first letter of the chain named. Names may count otherwise.

B1: E356A: SETD7 substitution mutant at position 356 (protein)
chain: MDSDDEMVEEAVEGHLDDDGLPHGFCTVTYSSTDRFEGNFVHGEKNGRGKFFFFDGSTLEGYYVDDALQGQGVYTYEDGGVLQGTYVDGELNGPAQEYDTDGRLIFKGQYKDNIRHGVCWIYYPDGGSLVGEVNEDGEMTGEKIAYVYPDERTALYGKFIDGEMIEGKLATLMSTEEGRPHFELMPGNSVYHFDKSTSSCISTNALLPDPYESERVYVAESLISSAGEGLFSKVAVGPNTVMSFYNGVRITHQEVDSRDWALNGNTLSLDEETVIDVPEPYNHVSKYCASLGHKANHSFTPNCIYDMFVHPRFGPIKCIRTLRAVEADEELTVAYGYDHSPPGKSGPEAPEWYQVALKAFQATQQK
B2: K294A: SETD7 substitution mutant at position 294 (protein)
chain: B1 chain with K294A, A356E
B3: SETD7 S340A: SETD7 mutant, Ser340 mutated to alanine; cannot be phosphorylated (protein)
chain: B1 chain with S340A, A356E
B4: SETD7 T332E: SETD7-GFP mutant with phospho-mimicking substitution T332E (protein, UniProt Q8WTS6 1-366, looked up, variant T332E)
Histone-lysine …: B1 chain with T332E, A356E
modifications: GFP tag
B5: Q361A: SETD7 substitution mutant at position 361 (protein)
chain: B1 chain with A356E, Q361A
B6: S345: SETD7 mutant, Ser345 mutated to alanine (phospho-disrupting mutation) (protein, UniProt Q8WTS6 1-366, looked up, variant S345A)
Histone-lysine …: B1 chain with S345A, A356E
B7: SETD7 T332E/S340D/S345D: SETD7-GFP mutant with three phospho-mimicking substitutions (protein, UniProt Q8WTS6 1-366, looked up, variant T332E S340D S345D)
Histone-lysine …: B1 chain with T332E, S340D, S345D, A356E
modifications: GFP tag
notes: SETD7-GFP mutant with three phospho-mimicking substitutions
B8: SETD7 T332A: SETD7 mutant, Thr332 mutated to alanine; cannot be phosphorylated (protein)
chain: B1 chain with T332A, A356E
B9: WT SETD7: wild type histone-lysine N-methyltransferase SETD7, full length (SEQ ID NO: 37) (protein)
chain: B1 chain with A356E
B10: Q365A: SETD7 substitution mutant at position 365 (protein)
chain: B1 chain with A356E, Q365A
B11: SETD7 H297A/T332E/S340D/S345D: catalytically inert phospho-mimicking SETD7 mutant due to the H297A mutation (protein)
chain: B1 chain with H297A, T332E, S340D, S345D, A356E
B12: K358A: SETD7 substitution mutant at position 358 (protein)
chain: B1 chain with A356E, K358A
B13: Y305A: SETD7 mutant, Tyr305 mutated to alanine (phospho-disrupting mutation) (protein)
chain: B1 chain with Y305A, A356E
B14: K317A: SETD7 substitution mutant at position 317 (protein)
chain: B1 chain with K317A, A356E
B15: SETD7 S340D: SETD7-GFP mutant with phospho-mimicking substitution S340D (protein, UniProt Q8WTS6 1-366, looked up, variant S340D)
Histone-lysine …: B1 chain with S340D, A356E
modifications: GFP tag
B16: S225A: SETD7 mutant, Ser225 mutated to alanine (phospho-disrupting mutation) (protein)
chain: B1 chain with S225A, A356E
B17: K366A: SETD7 substitution mutant at position 366 (protein)
chain: B1 chain with A356E, K366A

Tests used:
histone = conditions: cited from earlier work; for monomethyl transferase activity: SETD7 substitution mutants
[1] = tested on: human retinal pigment epithelial cells (RPE); assay: Nuclear translocation of SETD7 alanine (phospho-disrupting) mutants in response to high glucose levels; format: cell-based; conditions: mutants expressed in human RPE cells; FIG. 3
Text: To identify the potential role of phosphorylatable sites located in the C-terminal regions of SETD7 (FIG. 1), phosphorylatable serines, threonines and tyrosines at positions 225, 305, 332, 340, and 345 where mutated to alanine (phospho-disrupting mutations) and expressed in human retinal pigment epithelial cells (RPE). Nuclear translocation or lack thereof in response to high glucose levels was examined (FIG. 2).
SETD7 cellular distribution changed in response to changes in glucose levels for wild type SETD7 (WT) and SETD7 mutants comprising a S225A substitution or a Y305A substitutions.

[2] = tested on: human retinal pigment epithelial (RPE) cells; assay: Cellular distribution of SETD7-GFP mutants under low or high glucose (GFP fluorescence); format: cell-based; conditions: SETD7-GFP mutants in human RPE cells; low glucose and high glucose conditions; FIG. 4
Procedure: SETD7-GFP mutants with phospho-mimicking substitutions at positions 332, 340 and/or 345 were prepared. The phospho-mimicking substitutions were T332E, S340D, and/or S345D. The SETD7-GFP mutants were expressed in human retinal pigment epithelial (RPE) cells. The fluorescence intensity emitted from the GFP signal in the cells under high or low glucose condition was measured.

H3 and p53/TP53 = conditions: cited from earlier work
TAF10 = conditions: cited from earlier work

| Molecule | nuclear translocation in response to changes in glucose [1] | translocation to the nucleus [2] | other results |
| --- | --- | --- | --- |
| B1 | – | – | monomethyl transferase activity (histone): partial loss |
| B2 | – | – | catalytic activity (e.g., monomethyl transferase activity) (histone): reduces |
| B3 | did not translocate to the nucleus | not translocated to the nucleus | – |
| B4 | – | translocated to the nucleus | – |
| B5 | – | – | monomethyl transferase activity (histone): partial loss |
| B6 | did not translocate to the nucleus | – | – |
| B7 | – | translocated to the nucleus | – |
| B8 | did not translocate to the nucleus | not translocated to the nucleus | – |
| B9 | translocated normally to the nucleus | – | – |
| B10 | – | – | monomethyl transferase activity (histone): partial loss |
| B11 | – | translocated to the nucleus | – |
| B12 | – | – | monomethyl transferase activity (histone): partial loss |
| B13 | translocated normally to the nucleus | – | – |
| B14 | – | – | methyltransferase activity for H3 and p53/TP53 (H3 and p53/TP53): increased; methyltransferase activity toward TAF10 (TAF10): reduction |
| B15 | – | translocated to the nucleus | – |
| B16 | translocated normally to the nucleus | – | – |
| B17 | – | – | monomethyl transferase activity (histone): partial loss |
